Source: paper PMC11926874, “Patulin Detoxification by Evolutionarily Divergent Reductases of Gluconobacter oxydans ATCC 621” (Journal of Agricultural and Food Chemistry, 2025)

T1: GOX0716 (Gluconobacter oxydans, UniProt Q5FT03)
T1 construct: recombinant N-terminal His-tagged protein
T1 sequence (Q5FT03 1-257): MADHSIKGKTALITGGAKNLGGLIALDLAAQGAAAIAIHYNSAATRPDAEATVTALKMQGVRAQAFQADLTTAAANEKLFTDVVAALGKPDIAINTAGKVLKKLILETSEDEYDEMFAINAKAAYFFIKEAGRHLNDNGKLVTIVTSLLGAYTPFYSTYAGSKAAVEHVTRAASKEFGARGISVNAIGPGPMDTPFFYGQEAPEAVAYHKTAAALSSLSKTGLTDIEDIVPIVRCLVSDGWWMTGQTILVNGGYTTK

T2: GOX1462 (Gluconobacter oxydans, UniProt Q5FQY5)
T2 construct: recombinant N-terminal His-tagged protein
T2 sequence (Q5FQY5 1-359): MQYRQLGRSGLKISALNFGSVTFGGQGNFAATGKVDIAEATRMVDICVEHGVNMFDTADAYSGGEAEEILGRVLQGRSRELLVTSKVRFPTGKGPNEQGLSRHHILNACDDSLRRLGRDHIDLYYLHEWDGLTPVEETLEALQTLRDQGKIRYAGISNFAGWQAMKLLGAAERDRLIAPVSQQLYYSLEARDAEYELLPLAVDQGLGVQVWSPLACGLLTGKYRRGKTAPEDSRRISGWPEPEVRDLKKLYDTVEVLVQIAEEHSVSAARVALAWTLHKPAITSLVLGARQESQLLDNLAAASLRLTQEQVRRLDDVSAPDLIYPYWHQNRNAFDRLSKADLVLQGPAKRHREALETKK


How the values were obtained:
[1] = target: T1, GOX0716; experiment: tryptophan fluorescence quenching; assay type: binding
[2] = target: T2, GOX1462; experiment: tryptophan fluorescence quenching; assay type: binding
[3] = substrate: CCC=O; experiment: purified protein, by the assay type; parameters: steady-state Michaelis-Menten kinetics of carbonyl substrate reduction, NADPH consumption at 340 nm, 25 °C; details: 25.0 °C
Protocol: (§1) For substrate specificity, kinetic measurements were performed at 25 °C in triplicate in 100 mM potassium phosphate buffer, pH 6.0 (for GOX0716) or pH 7.0 (for GOX1462). Substrate utilization was monitored by the decrease in the level of NADPH at 340 nm using a BioTek Epoch 2 microplate reader. Reactions were conducted in a total volume of 200 μL. The molar extinction coefficient of NADPH was determined by constructing a linear regression standard line using NADPH standards of known concentrations. One unit (1 U) of enzyme activity is defined as the amount of enzyme required to oxidize 1 μmol NADPH per minute. Stock solutions of substrates were prepared in dimethyl sulfoxide (DMSO). All kinetic data fitting was performed using nonlinear regression with GraphPad Prism, version 8. All data were fitted to the Michaelis–Menten equation. The kinetic parameters for each enzyme were determined at their respective pH optimum.

[4] = substrate: O=CCO; experiment: purified protein, by the assay type; parameters: steady-state Michaelis-Menten kinetics of carbonyl substrate reduction, NADPH consumption at 340 nm, 25 °C; details: 25.0 °C
Protocol: as §1

[5] = substrate: CCCCCC=O; experiment: purified protein, by the assay type; parameters: steady-state Michaelis-Menten kinetics of carbonyl substrate reduction, NADPH consumption at 340 nm, 25 °C; details: 25.0 °C
Protocol: as §1

[6] = substrate: CCCCCCC=O; experiment: purified protein, by the assay type; parameters: steady-state Michaelis-Menten kinetics of carbonyl substrate reduction, NADPH consumption at 340 nm, 25 °C; details: 25.0 °C
Protocol: as §1

[7] = substrate: CCCC=O; experiment: purified protein, by the assay type; parameters: steady-state Michaelis-Menten kinetics of carbonyl substrate reduction, NADPH consumption at 340 nm, 25 °C; details: 25.0 °C
Protocol: as §1

[8] = substrate: O=Cc1ccco1; experiment: purified protein; assay type: biochemical, Gluconobacter oxydans; details: NADPH
[9] = substrate: O=C1C=C2C(=CCOC2O)O1; experiment: purified protein; assay type: biochemical, Gluconobacter oxydans
[10] = substrate: O=C1C(=O)c2ccccc2-c2ccccc21; experiment: purified protein; assay type: biochemical, Gluconobacter oxydans; details: NADPH
[11] = substrate: O=C1Nc2ccccc2C1=O; experiment: purified protein; assay type: biochemical, Gluconobacter oxydans; details: NADPH
[12] = substrate: CC(=O)C=O; experiment: purified protein, by the assay type; parameters: steady-state Michaelis-Menten kinetics of carbonyl substrate reduction, NADPH consumption at 340 nm, 25 °C; details: 25.0 °C
Protocol: as §1

[13] = substrate: O=CC(O)CO; experiment: purified protein, by the assay type; parameters: steady-state Michaelis-Menten kinetics of carbonyl substrate reduction, NADPH consumption at 340 nm, 25 °C; details: 25.0 °C
Protocol: as §1

[14] = substrate: O=Cc1ccccc1; experiment: purified protein, by the assay type; parameters: steady-state Michaelis-Menten kinetics of carbonyl substrate reduction, NADPH consumption at 340 nm, 25 °C; details: 25.0 °C
Protocol: as §1

[15] = substrate: CCCC=O; experiment: purified protein; assay type: biochemical, Gluconobacter oxydans; details: NADPH
[16] = NADPH docked as the ring-opened aldehyde form: hydrogen bonds with catalytic Tyr159 and Thr146, Tyr156, Glu201, Pro191, Pro189
[17] = NADPH docked as the ring-opened aldehyde form: hydrogen bonds with catalytic Tyr61, Ser157 and Asn158

| Molecule | Km [3] | kcat [3] | kcat/Km [3] | Km [5] | kcat [5] | kcat/Km [5] | Km [6] | kcat [6] | kcat/Km [6] | Km [10] | kcat [10] | kcat/Km [10] | Km [11] | kcat [11] | kcat/Km [11] | other results |
| --- | --- | --- | --- | --- | --- | --- | --- | --- | --- | --- | --- | --- | --- | --- | --- | --- |
| NC(=O)C1=CN([C@@H]2O[C@H](COP(=O)(O)OP(=O)(O)OC[C@H]3O[C@@H](n4cnc5c(N)ncnc54)[C@H](OP(=O)(O)O)[C@@H]3O)[C@@H](O)[C@H]2O)C=CC1 [NADPH] | – | – | – | – | – | – | – | – | – | – | – | – | – | – | – | Kd [1]: 20.5 ± 2.86 µM; Kd [2]: 30.3 ± 3.56 µM |
| GOX0716 (Gluconobacter oxydans 621H) (protein, recombinant N-terminal His-tagged protein) MADHSIKGKTALITGGAKNLGGLIALDLAAQGAAAIAIHYNSAATRPDAEATVTALKMQGVRAQAFQADLTTAAANEKLFTDVVAALGKPDIAINTAGKVLKKLILETSEDEYDEMFAINAKAAYFFIKEAGRHLNDNGKLVTIVTSLLGAYTPFYSTYAGSKAAVEHVTRAASKEFGARGISVNAIGPGPMDTPFFYGQEAPEAVAYHKTAAALSSLSKTGLTDIEDIVPIVRCLVSDGWWMTGQTILVNGGYTTK | 417 ± 52.1 µM | 0.0442 ± 0.00201 s⁻¹ | 106 ± 14.1 M⁻¹ s⁻¹ | 509 ± 71.7 µM | 0.00946 ± 0.000516 s⁻¹ | 18.6 ± 2.81 M⁻¹ s⁻¹ | 637 ± 72.8 µM | 0.0402 ± 0.00191 s⁻¹ | 63.1 ± 7.81 M⁻¹ s⁻¹ | 46.9 ± 8.17 µM | 3.14 ± 0.181 s⁻¹ | 67000 ± 12300 M⁻¹ s⁻¹ | 282 ± 40.3 µM | 0.127 ± 0.00588 s⁻¹ | 450 ± 67.6 M⁻¹ s⁻¹ | Km [4]: 607 ± 110 µM; kcat [4]: 0.00643 ± 0.000459 s⁻¹; kcat/Km [4]: 10.6 ± 2.06 M⁻¹ s⁻¹; Km [7]: 351 ± 40.4 µM; kcat [7]: 0.0339 ± 0.00135 s⁻¹; kcat/Km [7]: 96.6 ± 11.8 M⁻¹ s⁻¹; Km [8]: 94.8 ± 8.91 µM; kcat [8]: 0.0103 ± 0.000223 s⁻¹; kcat/Km [8]: 109 ± 0.0964 M⁻¹ s⁻¹; Km [9, 16]: 1300 ± 213 µM; kcat [9, 16]: 0.0468 ± 0.00402 s⁻¹; kcat/Km [9, 16]: 36 ± 6.66 M⁻¹ s⁻¹ |
| GOX1462 (Gluconobacter oxydans 621H) (protein, recombinant N-terminal His-tagged protein) MQYRQLGRSGLKISALNFGSVTFGGQGNFAATGKVDIAEATRMVDICVEHGVNMFDTADAYSGGEAEEILGRVLQGRSRELLVTSKVRFPTGKGPNEQGLSRHHILNACDDSLRRLGRDHIDLYYLHEWDGLTPVEETLEALQTLRDQGKIRYAGISNFAGWQAMKLLGAAERDRLIAPVSQQLYYSLEARDAEYELLPLAVDQGLGVQVWSPLACGLLTGKYRRGKTAPEDSRRISGWPEPEVRDLKKLYDTVEVLVQIAEEHSVSAARVALAWTLHKPAITSLVLGARQESQLLDNLAAASLRLTQEQVRRLDDVSAPDLIYPYWHQNRNAFDRLSKADLVLQGPAKRHREALETKK | 164 ± 13.7 µM | 0.0228 ± 0.000523 s⁻¹ | 139 ± 12 M⁻¹ s⁻¹ | 513 ± 141 µM | 0.0251 ± 0.00251 s⁻¹ | 48.9 ± 14.3 M⁻¹ s⁻¹ | 178 ± 15.6 µM | 0.027 ± 0.000671 s⁻¹ | 152 ± 13.8 M⁻¹ s⁻¹ | 31.9 ± 4.85 µM | 5.79 ± 0.234 s⁻¹ | 182000 ± 28600 M⁻¹ s⁻¹ | 107 ± 17.1 µM | 0.163 ± 0.00536 s⁻¹ | 1520 ± 248 M⁻¹ s⁻¹ | Km [12]: 1990 ± 238 µM; kcat [12]: 0.221 ± 0.0159 s⁻¹; kcat/Km [12]: 111 ± 15.5 M⁻¹ s⁻¹; Km [13]: 483 ± 85.9 µM; kcat [13]: 0.0181 ± 0.00121 s⁻¹; kcat/Km [13]: 37.5 ± 7.12 M⁻¹ s⁻¹; Km [14]: 258 ± 37.7 µM; kcat [14]: 0.0184 ± 0.000807 s⁻¹; kcat/Km [14]: 71.3 ± 10.9 M⁻¹ s⁻¹; Km [9, 17]: 178 ± 25.4 µM; kcat [9, 17]: 0.0389 ± 0.00145 s⁻¹; kcat/Km [9, 17]: 219 ± 32.3 M⁻¹ s⁻¹; Km [15]: 139 ± 14.4 µM; kcat [15]: 0.0241 ± 0.000654 s⁻¹; kcat/Km [15]: 173 ± 18.5 M⁻¹ s⁻¹ |
